Measured values: article PMC12416549 (2024)
Where a chain is given by its changes, count along the chain named. Names may count otherwise.

B1: L64V (designed binder)
chain: MTLQELLREEALRRAEAEAFRYALELLAEKFPEQKEYLLDLAEEIESQIRSLSGVDVEDVRKFVDKEWAWVKELLAEHPAELAEVEAARAARLAELRAEVEAKVAA
B2: E10R (designed binder)
chain: B1 chain with E10R, V64L
B3: L38E (designed binder)
chain: B1 chain with L38E, V64L
B4: D40I (designed binder)
chain: B1 chain with D40I, V64L
B5: L52N (designed binder)
chain: B1 chain with L52N, V64L
B6: E9V (designed binder)
chain: B1 chain with E9V, V64L
B7: K72L (designed binder)
chain: B1 chain with V64L, K72L
B8: A69V (designed binder)
chain: B1 chain with V64L, A69V
B9: Y37Q (designed binder)
chain: B1 chain with Y37Q, V64L
B10: E9W (designed binder)
chain: B1 chain with E9W, V64L
B11: L41P (designed binder)
chain: B1 chain with L41P, V64L
B12: S51H (designed binder)
chain: B1 chain with S51H, V64L
B13: E25L (designed binder)
chain: B1 chain with E25L, V64L
B14: A83R (designed binder)
chain: B1 chain with V64L, A83R
B15: A17T (designed binder)
chain: B1 chain with A17T, V64L
B16: L74R (designed binder)
chain: B1 chain with V64L, L74R
B17: A80S (designed binder)
chain: B1 chain with V64L, A80S
B18: L38H (designed binder)
chain: B1 chain with L38H, V64L
B19: G54H (designed binder)
chain: B1 chain with G54H, V64L
B20: E29R (designed binder)
chain: B1 chain with E29R, V64L
B21: P79W (designed binder)
chain: B1 chain with V64L, P79W
B22: V60D (designed binder)
chain: B1 chain with V60D, V64L
B23: L74K (designed binder)
chain: B1 chain with V64L, L74K
B24: I49H (designed binder)
chain: B1 chain with I49H, V64L
B25: S51E (designed binder)
chain: B1 chain with S51E, V64L
B26: E25G (designed binder)
chain: B1 chain with E25G, V64L
B27: L7K (designed binder)
chain: B1 chain with L7K, V64L
B28: R50Q (designed binder)
chain: B1 chain with R50Q, V64L
B29: L93P (designed binder)
chain: B1 chain with V64L, L93P
B30: A98I (designed binder)
chain: B1 chain with V64L, A98I
B31: A94D (designed binder)
chain: B1 chain with V64L, A94D
B32: A91V (designed binder)
chain: B1 chain with V64L, A91V
B33: A87H (designed binder)
chain: B1 chain with V64L, A87H
B34: P79E (designed binder)
chain: B1 chain with V64L, P79E
B35: E43Q (designed binder)
chain: B1 chain with E43Q, V64L
B36: L12T (designed binder)
chain: B1 chain with L12T, V64L
B37: R21Y (designed binder)
chain: B1 chain with R21Y, V64L
B38: K30V (designed binder)
chain: B1 chain with K30V, V64L
B39: K66L (designed binder)
chain: B1 chain with V64L, K66L
B40: F63K (designed binder)
chain: B1 chain with F63K, V64L
B41: A83N (designed binder)
chain: B1 chain with V64L, A83N
B42: R61S (designed binder)
chain: B1 chain with R61S, V64L
B43: E36L (designed binder)
chain: B1 chain with E36L, V64L
B44: L27R (designed binder)
chain: B1 chain with L27R, V64L
B45: L6D (designed binder)
chain: B1 chain with L6D, V64L
B46: F20S (designed binder)
chain: B1 chain with F20S, V64L
B47: L96N (designed binder)
chain: B1 chain with V64L, L96N
B48: A42N (designed binder)
chain: B1 chain with A42N, V64L
B49: L24T (designed binder)
chain: B1 chain with L24T, V64L
B50: R8T (designed binder)
chain: B1 chain with R8T, V64L
B51: A19W (designed binder)
chain: B1 chain with A19W, V64L
B52: A15F (designed binder)
chain: B1 chain with A15F, V64L
B53: A106Q (designed binder)
chain: B1 chain with V64L, A106Q
B54: I45W (designed binder)
chain: B1 chain with I45W, V64L
B55: I45K (designed binder)
chain: B1 chain with I45K, V64L
B56: P79F (designed binder)
chain: B1 chain with V64L, P79F
B57: L39V (designed binder)
chain: B1 chain with L39V, V64L
B58: Y22A (designed binder)
chain: B1 chain with Y22A, V64L
B59: A19H (designed binder)
chain: B1 chain with A19H, V64L

Target: T1, TNFR1 (Homo sapiens, UniProt P19438)
T1 chain: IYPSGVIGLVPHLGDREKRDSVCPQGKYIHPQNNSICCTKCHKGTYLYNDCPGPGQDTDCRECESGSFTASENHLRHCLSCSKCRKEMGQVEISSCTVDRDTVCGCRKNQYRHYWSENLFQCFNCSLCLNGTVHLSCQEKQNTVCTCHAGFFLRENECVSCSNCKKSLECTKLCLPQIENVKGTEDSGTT
Experiment: yeast display SC50

Row | Binder | apparent Kd (screen) [nM]
1 | B1 | 13.8
2 | B2 | 10.4
3 | B3 | 10.4
4 | B4 | 13.8
5 | B5 | 2.73
6 | B6 | 0.869
7 | B7 | 0.79
8 | B8 | 0.653
9 | B9 | 8.56
10 | B10 | 0.405
11 | B11 | 1.27
12 | B12 | 0.304
13 | B13 | 0.539
14 | B14 | 0.49
15 | B15 | 0.446
16 | B16 | 12.5
17 | B17 | 0.869
18 | B18 | 0.79
19 | B19 | 11.4
20 | B20 | 0.49

Row | Binder | apparent Kd (screen) [nM]
21 | B21 | 0.49
22 | B22 | 1.05
23 | B23 | 13.8
24 | B24 | 0.304
25 | B25 | 2.05
26 | B26 | 0.49
27 | B27 | 16.7
28 | B28 | 0.49
29 | B29 | 1.69
30 | B30 | 0.653
31 | B31 | 0.593
32 | B32 | 0.539
33 | B33 | 0.49
34 | B34 | 0.446
35 | B35 | 0.956
36 | B36 | 0.718
37 | B37 | 0.49
38 | B38 | 0.446
39 | B39 | 0.49
40 | B40 | 5.31

Row | Binder | apparent Kd (screen) [nM]
41 | B41 | 0.653
42 | B42 | 0.79
43 | B43 | 0.539
44 | B44 | 0.49
45 | B45 | 1.27
46 | B46 | 1.05
47 | B47 | 0.446
48 | B48 | 0.869
49 | B49 | 0.446
50 | B50 | 0.79
51 | B51 | 9.41
52 | B52 | 0.653
53 | B53 | 0.142
54 | B54 | 0.718
55 | B55 | 3.99
56 | B56 | 0.653
57 | B57 | 0.653
58 | B58 | 0.79
59 | B59 | 0.718
